Columns and labels:
[1] = molecular target: Im7-D2 (C-terminal domain of D2 fused to Im7) (Thermosynechococcus elongatus, UniProt Q8CM25 289-352); experiment: SPR
[2] = molecular target: Im7-D1a (D1 a-loop fused to Im7) (Thermosynechococcus elongatus, UniProt P0A444 54-113); experiment: SPR
Sequence of Im7-D1a (D1 a-loop fused to Im7) (P0A444 54-113): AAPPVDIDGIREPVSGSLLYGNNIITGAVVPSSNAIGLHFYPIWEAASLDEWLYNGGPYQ

Sequence of Im7-D2 (C-terminal domain of D2 fused to Im7) (Q8CM25 289-352): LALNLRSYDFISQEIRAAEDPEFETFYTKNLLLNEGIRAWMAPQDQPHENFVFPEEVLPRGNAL

B1: PsbO (natural protein)
chain: AKQTLTYDDIVGTGLANKCPTLDDTARGAYPIDSSQTYRIARLCLQPTTFLVKEEPKNKRQEAEFVPTKLVTRETTSLDQIQGELKVNSDGSLTFVEEDGIDFQPVTVQMAGGERIPLLFTVKNLVASTQPNVTSITTSTDFKGEFNVPSYRTANFLDPKGRGLASGYDSAIALPQAKEEELARANVKRFSLTKGQISLNVAKVDGRTGEIAGTFESEQLSDDDMGAHEPHEVKIQGVFYASIEPA
With B1 the Kd [1] was ~41 µM and the Kd [2] was ~60 µM.

Source: publication PMC4220643 (2014)
